The test system of data set [1] is HeLa Kyoto. The data set is described as follows: solubility in G1/S (NP-40 vs SDS abundance) (log2 ratio); higher = more soluble. Conditions: cell cycle stage: G1/S.
Data set [2] deals with HeLa Kyoto. Nature of the data set: melting temperature (median over replicates), in situ; higher = more thermally stable.
Data set [3] deals with HeLa Kyoto. Nature of the data set: thermal stability score vs G1/S (z-score of summed log2 fold changes over temperatures); higher = more thermally stable than in G1/S.
Data set [4] relates to HeLa Kyoto. Nature of the data set: solubility change mitosis vs G1/S (difference of NP-40 vs SDS log2 ratios) (log2 ratio difference); higher = more soluble in mitosis.
The mark [5] stands for this setting: cell cycle stage: early G1 (4.5 h after nocodazole release).
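Throughout, for melting temperature (median over replicates), in situ: HeLa Kyoto cells synchronized by double thymidine or nocodazole block, proteins quantified by TMT10plex mass spectrometry, three independent biological replicates.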
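Throughout, for solubility change mitosis vs G1/S (difference of NP-40 vs SDS log2 ratios): synchronized HeLa Kyoto cells (double thymidine block for G1/S, nocodazole release for mitosis), protein amounts in NP-40 versus SDS lysates quantified by mass spectrometry, three biological replicates.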
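Throughout, for solubility in G1/S (NP-40 vs SDS abundance): HeLa Kyoto cells arrested at G1/S by double thymidine block, proteins quantified by TMT10plex mass spectrometry in mild NP-40 versus SDS extracts, three biological replicates.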
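Throughout, for thermal stability score vs G1/S (z-score of summed log2 fold changes over temperatures): synchronized HeLa Kyoto cells, proteins quantified by TMT10plex mass spectrometry, three biological replicates, mitosis taken 0.5 h after nocodazole release, G1/S directly after double thymidine block.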

Turning to “MATAATIPSVATATAAALGEVEDEGLLASLFRDRFPEAQWRERPDVGRYLRELSGSGLERLRREPERLAEERAQLLQQTRDLAFANYKTFIRGAECTERIHRLFGDVEASLGRLLDRLPSFQQSCRNFVKEAEEISSNRRMNSLTLNRHTEILEILEIPQLMDTCVRNSYYEEALELAAYVRRLERKYSSIPVIQGIVNEVRQSMQLMLSQLIQQLRTNIQLPACLRVIGYLRRMDVFTEAELRVKFLQARDAWLRSILTAIPNDDPYFHITKTIEASRVHLFDIITQYRAIFSDEDPLLPPAMGEHTVNESAIFHGWVLQKVSQFLQVLETDLYRGIGGHLDSLLGQCMYFGLSFSRVGADFRGQLAPVFQRVAISTFQKAIQETVEKFQEEMNSYMLISAPAILGTSNMPAAVPATQPGTLQPPMVLLDFPPLACFLNNILVAFNDLRLCCPVALAQDVTGALEDALAKVTKIILAFHRAEEAAFSSGEQELFVQFCTVFLEDLVPYLNRCLQVLFPPAQIAQTLGIPPTQLSKYGNLGHVNIGAIQEPLAFILPKRETLFTLDDQALGPELTAPAPEPPAEEPRLEPAGPACPEGGRAETQAEPPSVGP [COG8]”, the “solubility in G1/S (log2)” value with HeLa Kyoto [1] was -0.00808. The melting temperature with HeLa Kyoto [2] (cell cycle stage: G1/S) came to 50.6 °C; in the data set on HeLa Kyoto [2] (cell cycle stage: mitosis), 48.4 °C. Besides, the thermal stability score is 0.73 in the data set on HeLa Kyoto [3] (setting [5]) and 1.67 in the data set with HeLa Kyoto [3] (cell cycle stage: mitosis). The “solubility change mitosis (log2)” value with HeLa Kyoto [4] was -0.112.

“MAETLSGLGDSGAAGAAALSSASSETGTRRLSDLRVIDLRAELRKRNVDSSGNKSVLMERLKKAIEDEGGNPDEIEITSEGNKKTSKRSSKGRKPEEEGVEDNGLEENSGDGQEDVETSLENLQDIDIMDISVLDEAEIDNGSVADCVEDDDADNLQESLSDSRELVEGEMKELPEQLQEHAIEDKETINNLDTSSSDFTILQEIEEPSLEPENEKILDILGETCKSEPVKEESSELEQPFAQDTSSVGPDRKLAEEEDLFDSAHPEEGDLDLASESTAHAQSSKADSLLAVVKREPAEQPGDGERTDCEPVGLEPAVEQSSAASELAEASSEELAEAPTEAPSPEARDSKEDGRKFDFDACNEVPPAPKESSTSEGADQKMSSPEDDSDTKRLSKEEKGRSSCGRNFWVSGLSSTTRATDLKNLFSKYGKVVGAKVVTNARSPGARCYGFVTMSTAEEATKCINHLHKTELHGKMISVEKAKNEPVGKKTSDKRDSDGKKEKSSNSDRSTNLKRDDKCDRKDDAKKGDDGSGEKSKDQDDQKPGPSERSRATKSGSRGTERTVVMDKSKGVPVISVKTSGSKERASKSQDRKSASREKRSVVSFDKVKEPRKSRDSESHSRVRERSEREQRMQAQWEREERERLEIARERLAFQRQRLERERMERERLERERMHVEHERRREQERIHREREELRRQQELRYEQERRPAVRRPYDLDRRDDAYWPEAKRAALDERYHSDFNRQDRFHDFDHRDRGRYPDHSVDRREGSRSMMGEREGQHYPERHGGPERHGRDSRDGWGGYGSDKRMSEGRGLPPPPRRDWGDHGRREDDRSWQGTADGGMMDRDHKRWQGGERSMSGHSGPGHMMNRGGMSGRGSFAPGGASRGHPIPHGGMQGGFGGQSRGSRPSDARFTRRY [SAFB]”: the “solubility in G1/S (log2)” value in the data set with HeLa Kyoto [1] is -0.896. Further, the results for the melting temperature in the data set with HeLa Kyoto [2] (cell cycle stage: G1/S) and in the data set on HeLa Kyoto [2] (cell cycle stage: mitosis) were 50 °C and 50.5 °C, respectively. Moreover, the results for the thermal stability score with HeLa Kyoto [3] (setting [5]) and with HeLa Kyoto [3] (cell cycle stage: mitosis) were 0.453 and 0.986, respectively. The “solubility change mitosis (log2)” value with HeLa Kyoto [4] is 0.541.

For “MDCSLVRTLVHRYCAGEENWVDSRTIYVGHREPPPGAEAYIPQRYPDNRIVSSKYTFWNFIPKNLFEQFRRVANFYFLIIFLVQLIIDTPTSPVTSGLPLFFVITVTAIKQGYEDWLRHKADNAMNQCPVHFIQHGKLVRKQSRKLRVGDIVMVKEDETFPCDLIFLSSNRGDGTCHVTTASLDGESSHKTHYAVQDTKGFHTEEDIGGLHATIECEQPQPDLYKFVGRINVYSDLNDPVVRPLGSENLLLRGATLKNTEKIFGVAIYTGMETKMALNYQSKSQKRSAVEKSMNAFLIVYLCILISKALINTVLKYMWQSEPFRDEPWYNQKTESERQRNLFLKAFTDFLAFMVLFNYIIPVSMYVTVEMQKFLGSYFITWDEDMFDEETGEGPLVNTSDLNEELGQVEYIFTDKTGTLTENNMEFKECCIEGHVYVPHVICNGQVLPESSGIDMIDSSPSVNGREREELFFRALCLCHTVQVKDDDSVDGPRKSPDGGKSCVYISSSPDEVALVEGVQRLGFTYLRLKDNYMEILNRENHIERFELLEILSFDSVRRRMSVIVKSATGEIYLFCKGADSSIFPRVIEGKVDQIRARVERNAVEGLRTLCVAYKRLIQEEYEGICKLLQAAKVALQDREKKLAEAYEQIEKDLTLLGATAVEDRLQEKAADTIEALQKAGIKVWVLTGDKMETAAATCYACKLFRRNTQLLELTTKRIEEQSLHDVLFELSKTVLRHSGSLTRDNLSGLSADMQDYGLIIDGAALSLIMKPREDGSSGNYRELFLEICRSCSAVLCCRMAPLQKAQIVKLIKFSKEHPITLAIGDGANDVSMILEAHVGIGVIGKEGRQAARNSDYAIPKFKHLKKMLLVHGHFYYIRISELVQYFFYKNVCFIFPQFLYQFFCGFSQQTLYDTAYLTLYNISFTSLPILLYSLMEQHVGIDVLKRDPTLYRDVAKNALLRWRVFIYWTLLGLFDALVFFFGAYFVFENTTVTSNGQIFGNWTFGTLVFTVMVFTVTLKLALDTHYWTWINHFVIWGSLLFYVVFSLLWGGVIWPFLNYQRMYYVFIQMLSSGPAWLAIVLLVTISLLPDVLKKVLCRQLWPTATERVQTKSQCLSVEQSTIFMLSQTSSSLSF [ATP11A]”, the “solubility in G1/S (log2)” value in the data set with HeLa Kyoto [1] is -0.526. The melting temperature in the data set on HeLa Kyoto [2] (cell cycle stage: G1/S) and in the data set on HeLa Kyoto [2] (cell cycle stage: mitosis) was 53.8 °C throughout. Further, the thermal stability score in the data set with HeLa Kyoto [3] (setting [5]) was -1.06; in the data set on HeLa Kyoto [3] (cell cycle stage: mitosis), -0.922. Moreover, the “solubility change mitosis (log2)” value in the data set on HeLa Kyoto [4] is 0.163.

For the sequence “MWRLPRALCVHAAKTSKLSGPWSRPAAFMSTLLINQPQYAWLKELGLREENEGVYNGSWGGRGEVITTYCPANNEPIARVRQASVADYEETVKKAREAWKIWADIPAPKRGEIVRQIGDALREKIQVLGSLVSLEMGKILVEGVGEVQEYVDICDYAVGLSRMIGGPILPSERSGHALIEQWNPVGLVGIITAFNFPVAVYGWNNAIAMICGNVCLWKGAPTTSLISVAVTKIIAKVLEDNKLPGAICSLTCGGADIGTAMAKDERVNLLSFTGSTQVGKQVGLMVQERFGRSLLELGGNNAIIAFEDADLSLVVPSALFAAVGTAGQRCTTARRLFIHESIHDEVVNRLKKAYAQIRVGNPWDPNVLYGPLHTKQAVSMFLGAVEEAKKEGGTVVYGGKVMDRPGNYVEPTIVTGLGHDASIAHTETFAPILYVFKFKNEEEVFAWNNEVKQGLSSSIFTKDLGRIFRWLGPKGSDCGIVNVNIPTSGAEIGGAFGGEKHTGGGRESGSDAWKQYMRRSTCTINYSKDLPLAQGIKFQ [ALDH7A1]”, the “solubility in G1/S (log2)” value in the data set with HeLa Kyoto [1] is 0.167. Further, the melting temperature in the data set with HeLa Kyoto [2] (cell cycle stage: G1/S) was determined as 54.3 °C; with HeLa Kyoto [2] (cell cycle stage: mitosis), 54 °C. Further, the thermal stability score in the data set with HeLa Kyoto [3] (setting [5]) was -0.224; in the data set on HeLa Kyoto [3] (cell cycle stage: mitosis), -1.8. Also, the “solubility change mitosis (log2)” value in the data set with HeLa Kyoto [4] is -0.107.

As for “MLSVASRSGPFAPVLSATSRGVAGALRPLVQATVPATPEQPVLDLKRPFLSRESLSGQAVRRPLVASVGLNVPASVCYSHTDIKVPDFSEYRRLEVLDSTKSSRESSEARKGFSYLVTGVTTVGVAYAAKNAVTQFVSSMSASADVLALAKIEIKLSDIPEGKNMAFKWRGKPLFVRHRTQKEIEQEAAVELSQLRDPQHDLDRVKKPEWVILIGVCTHLGCVPIANAGDFGGYYCPCHGSHYDASGRIRLGPAPLNLEVPTYEFTSDDMVIVG [UQCRFS1]”, the “solubility in G1/S (log2)” value in the data set with HeLa Kyoto [1] came out at 0.119. Further, the melting temperature in the data set on HeLa Kyoto [2] (cell cycle stage: G1/S) was 55.6 °C; in the data set on HeLa Kyoto [2] (cell cycle stage: mitosis) it was 55.5 °C. Besides, the thermal stability score is -1.93 in the data set with HeLa Kyoto [3] (setting [5]) and -2.28 with HeLa Kyoto [3] (cell cycle stage: mitosis). Besides, in the data set with HeLa Kyoto [4], the “solubility change mitosis (log2)” value is -0.113.

The values above are taken from the supplement of paper PMC5998384.
